Columns and labels:
Assay type in all cases: in vivo, athymic nude mice
[1] = tested on: human alveolar adenocarcinoma tumor xenografts (A549); test: Human alveolar adenocarcinoma (A549) xenograft, tumors ~285 mm^3 (Example 2); settings: start ~285 mm^3; i.v.; 1×10^9 minicells per dose; IFN-gamma 0.5×10^4 IU per dose; by day 43, six doses
Excerpt: As described above, minicells were produced from an S. typhimurium minCDE-mutant strain and were purified using a gradient centrifugation/filamentation/filtration/endotoxin removal procedure previously described in MacDiarmid et al. (2007). The purified minicells were packaged with chemotherapeutic drug doxorubicin, also per MacDiarmid et al. (2007).
The bispecific antibody (BsAb) was a single polypeptide containing binding specificity respectively for S. typhimurium O-polysaccharide, present on minicells, and for human EGFR, overexpressed on alveolar adenocarcinoma cells. The O-polysaccharide specificity was derived from a mouse monoclonal antibody, for which the variable regions were isolated from a hybridoma cell line and presented as a single-chain variable fragment (scFv). The hybridoma cell line was prepared by immunizing mice with purified LPS and fusing the lymphocytes with tumor cells. Subsequently, the clones were screened for an antibody capable of binding the O-polysaccharide. The EGFR specificity, also presented as an scFv, was derived from the commercial antibody Erbitux® (Bristol Myers Squibb, USA). […]
The resulting tumors were measured twice a week, using an electronic digital caliper (Mitutoyo, Japan, with a measure accuracy of +/−0.001 inch), and mean tumor volume was calculated using the formula length (mm)×width (mm^2)×0.5=volume (mm^3). […]

[2] = tested on: human breast tumor xenografts (MDA-MB-468); test: Human breast cancer (MDA-MB-468) xenograft, moderate tumors ~145 mm^3 (Example 3); settings: start ~145 mm^3; i.v.; 1×10^9 minicells per dose; IFN-gamma 0.5×10^4 IU per dose; by day 30, six doses
Procedure: (§1) As described above, minicells were purified, packaged with doxorubicin, and targeted using single chain bispecific antibody with anti-O-polysaccharide and anti-EGFR specificities. Additionally, human breast cancer cells (MDA-MB-468; ATCC) were established as xenografts in nu/nu mice, and tumor volumes were measured, also as described.
The treatments commenced when the tumors reached a mean of ˜145 mm^3, and mice were randomized to four different groups of seven mice per group. All treatments were administered i.v. in a total volume of 100 μl. All minicell doses contained 1×10^9 minicells of the respective type.
The experiment was designed as follows: Group 1 (control) received sterile physiological saline only. Group 2 (control) received IFN-gamma (0.5×10^4 IU) per dose.

[3] = tested on: human breast tumor xenografts (MDA-MB-468); test: Human breast cancer (MDA-MB-468) xenograft, large tumors ~250 mm^3 (Example 4); settings: start ~250 mm^3; i.v.; 1×10^9 minicells per dose; IFN-gamma 0.5×10^4 IU per dose; by day 28, 3 doses
Procedure: as §1, with “doxorubicin” for “doxorubicin,”, “Human” for “Additionally, human”, “(MDA-MB-468)” for “(MDA-MB-468; ATCC)”, “described above.” for “described.”
The treatments were begun when the tumors reached a mean of ˜250 mm^3. As above, mice were randomized to four different groups of seven mice per group. The i.v. administration and minicell doses were as above, too.
The experiment was designed as follows. Group 1 (control) received sterile physiological saline only. Group 2 (control) received IFN-gamma (0.5×10^4 IU) per dose.

Measured: anti-tumor effect (tumor volume)

B1: IFN-gamma: interferon-gamma protein; given i.v. to mice, or endogenous serum level in dogs (protein, UniProt P01580 23-155, looked up)
Interferon gamma: HGTVIESLESLNNYFNSSGIDVEEKSLFLDIWRNWQKDGDMKILQSQIISFYLRLFEVLKDNQAISNNISVIESHLITTFFSNSKAKKDAFMSIAKFEVNNPQVQRQAFNELIRVVHQLLPESSLRKRKRSRC
no anti-tumor efficacy: all assays above
